Experimental data: patent US20150344570A1 (published 2015)
Read-outs that look alike come from different tables or passages of the source.

Key:
FcgRIIa R [1] = target: T1, FcgRIIa R (human, UniProt P12318 34-217); experiment: SPR (Biacore), antibody captured, FcgR as analyte
T1 construct: extracellular domain; also called FcγRIIa R; FcγRIIa type R
T1 sequence (looked up): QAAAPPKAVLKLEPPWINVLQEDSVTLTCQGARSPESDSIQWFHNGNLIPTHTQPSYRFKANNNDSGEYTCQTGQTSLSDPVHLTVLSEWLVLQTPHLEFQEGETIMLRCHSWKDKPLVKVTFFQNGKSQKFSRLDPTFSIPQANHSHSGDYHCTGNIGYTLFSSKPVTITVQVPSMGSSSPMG
Method: (§1) Then, H240-Hl136 (SEQ ID NO: 97) resulting from introduction of L234Y/L235Y/G236W/H268D/S298A/A327D into H240-Hl033 and H240-Kn133 (SEQ ID NO: 98) resulting from introduction of D270E/K326D/A330K/K334E into H240-Kn033 were constructed according to the method described in Reference Example 1.
(§2) Analysis of interaction between objective antibody and the FcγR was carried out using Biacore T100 (GE Healthcare), Biacore T200, Biacore A100, and Biacore 4000. HBS-EP+ (GE Healthcare) was used as the running buffer, and the measurement temperature was set to 25° C. Chips produced by immobilizing the antigen peptide by the amine coupling method to a Series S sensor Chip CM5 (GE Healthcare), chips produced by allowing preliminarily biotinylated antigen peptides to interact with and immobilize onto a Series S Sensor Chip SA (certified) (GE Healthcare), chips produced by immobilizing Protein L (ACTIGEN, BioVision) to Series S Sencor Chip CM5 (GE Healthcare), or chips produced by immobilizing Protein A/G (Thermo Scientific) to Series S Sencor Chip CM5 (GE Healthcare) were used. Antibodies of interest were captured onto these chips, and allowed to interact to each FcγR diluted with running buffer.

FcgRIIa H [2] = target: T2, FcgRIIa H (human, UniProt P12318 34-217); experiment: SPR (Biacore), antibody captured, FcgR as analyte
T2 construct: extracellular domain; also called FcγRIIa H; FcγRIIa type H
T2 sequence (looked up): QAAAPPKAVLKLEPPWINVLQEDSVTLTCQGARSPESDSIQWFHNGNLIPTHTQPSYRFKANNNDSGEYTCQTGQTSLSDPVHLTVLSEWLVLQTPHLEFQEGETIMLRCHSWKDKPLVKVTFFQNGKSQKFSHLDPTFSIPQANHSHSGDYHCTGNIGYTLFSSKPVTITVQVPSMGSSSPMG
Method: as §1, §2

FcgRIIIa F [3] = target: T3, FcgRIIIa F (human, UniProt P08637 17-208); experiment: SPR (Biacore), antibody captured, FcgR as analyte
T3 construct: extracellular domain; polymorphic site made after J. Clin. Invest; also called FcγRIIIa F
Method: as §1, §2

FcgRIIIa V [4] = target: T4, FcgRIIIa V (human, UniProt P08637 17-208); experiment: SPR (Biacore), antibody captured, FcgR as analyte
T4 construct: extracellular domain; polymorphic site made after J. Clin. Invest; also called FcγRIIIa V
Method: as §1, §2

FcgRIa = target: T5, FcgRIa (human, UniProt P12314 16-292); experiment: SPR (Biacore), antibody captured, FcgR as analyte
T5 construct: extracellular domain; also called FcγRIa; FcγRI
Method: (§3) Specifically, H240-Kn120 (SEQ ID NO: 99) resulting from introduction of S239M into H240-Kn067 and H240-Kn126 (SEQ ID NO: 100) resulting from introduction of Y235Q into H240-Kn120 were prepared according to the method described in Reference Example 1. […] Those described above were assayed for the binding to each FcgR according to the method described in Reference Example 8.
as §2, with “buffer. To regenerate and repeatedly use the chip, the antibodies captured onto the chip were washed off by reacting 10 mM glycine-HCl, pH 1.5.” for “buffer.”

FcgRIIa R [5] = target: T1, FcgRIIa R; experiment: SPR (Biacore), antibody captured, FcgR as analyte; remark: listed apart in the source
Method: as §3
as §2, with “buffer. To regenerate and repeatedly use the chip, the antibodies captured onto the chip were washed off by reacting 10 mM glycine-HCl, pH 1.5.” for “buffer.”

FcgRIIa H [6] = target: T2, FcgRIIa H; experiment: SPR (Biacore), antibody captured, FcgR as analyte; remark: listed apart in the source
Method: as §3
as §2, with “buffer. To regenerate and repeatedly use the chip, the antibodies captured onto the chip were washed off by reacting 10 mM glycine-HCl, pH 1.5.” for “buffer.”

FcgRIIb [7] = target: T6, FcgRIIb (human, UniProt P31994 43-217); experiment: SPR (Biacore), antibody captured, FcgR as analyte
T6 construct: extracellular domain; also called FcγRIIb; CD32B
T6 sequence (looked up): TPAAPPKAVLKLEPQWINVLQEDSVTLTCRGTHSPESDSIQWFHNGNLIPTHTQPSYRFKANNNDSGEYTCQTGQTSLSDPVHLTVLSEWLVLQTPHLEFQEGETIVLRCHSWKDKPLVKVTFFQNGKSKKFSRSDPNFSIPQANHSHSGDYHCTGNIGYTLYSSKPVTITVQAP
Method: as §3
as §2, with “buffer. To regenerate and repeatedly use the chip, the antibodies captured onto the chip were washed off by reacting 10 mM glycine-HCl, pH 1.5.” for “buffer.”

FcgRIIIa F [8] = target: T3, FcgRIIIa F; experiment: SPR (Biacore), antibody captured, FcgR as analyte; remark: listed apart in the source
Method: as §3
as §2, with “buffer. To regenerate and repeatedly use the chip, the antibodies captured onto the chip were washed off by reacting 10 mM glycine-HCl, pH 1.5.” for “buffer.”

FcgRIIIa V [9] = target: T4, FcgRIIIa V; experiment: SPR (Biacore), antibody captured, FcgR as analyte; remark: listed apart in the source
Method: as §3
as §2, with “buffer. To regenerate and repeatedly use the chip, the antibodies captured onto the chip were washed off by reacting 10 mM glycine-HCl, pH 1.5.” for “buffer.”

FcgRIIaR = target: T7, FcgRIIaR (human, UniProt P12318 34-217); experiment: SPR (Biacore); KD of H240-Kn033/H240-Hl033/L73-k0 divided by KD of the variant
T7 construct: extracellular domain; also called FcγRIIa R; FcgRIIa type R; not shown: His tag attached to the C terminus
T7 sequence (looked up): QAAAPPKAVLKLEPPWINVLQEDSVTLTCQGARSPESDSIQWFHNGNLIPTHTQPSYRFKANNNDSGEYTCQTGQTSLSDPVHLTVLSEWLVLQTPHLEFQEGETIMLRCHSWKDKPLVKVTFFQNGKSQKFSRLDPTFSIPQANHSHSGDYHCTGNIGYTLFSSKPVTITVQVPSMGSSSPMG
Method: (§4) Binding of the produced variants to FcgRIa, FcgRIIaR, FcgRIIaH, FcgRIIb, FcgRIIIaF, and FcgRIIIaV was measured according to the method of Reference Example 8.
as §2, with “buffer. To regenerate and repeatedly use the chip, the antibodies captured onto the chip were washed off by reacting 10 mM glycine-HCl, pH 1.5.” for “buffer.”

FcgRIIaH = target: T8, FcgRIIaH (human, UniProt P12318 34-217); experiment: as above
T8 construct: extracellular domain; also called FcγRIIa H; FcgRIIa type H; not shown: His tag attached to the C terminus
T8 sequence (looked up): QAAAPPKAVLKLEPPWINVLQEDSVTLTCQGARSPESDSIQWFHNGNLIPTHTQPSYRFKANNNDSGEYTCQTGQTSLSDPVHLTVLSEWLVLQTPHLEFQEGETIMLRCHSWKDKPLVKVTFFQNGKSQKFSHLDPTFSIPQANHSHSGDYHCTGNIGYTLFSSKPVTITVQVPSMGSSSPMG
Method: as §4
as §2, with “buffer. To regenerate and repeatedly use the chip, the antibodies captured onto the chip were washed off by reacting 10 mM glycine-HCl, pH 1.5.” for “buffer.”

FcgRIIb [10] = target: T9, FcgRIIb (human, UniProt P31994 43-217); experiment: as above
T9 construct: extracellular domain; also called FcγRIIb; 2b; not shown: His tag attached to the C terminus
T9 sequence (looked up): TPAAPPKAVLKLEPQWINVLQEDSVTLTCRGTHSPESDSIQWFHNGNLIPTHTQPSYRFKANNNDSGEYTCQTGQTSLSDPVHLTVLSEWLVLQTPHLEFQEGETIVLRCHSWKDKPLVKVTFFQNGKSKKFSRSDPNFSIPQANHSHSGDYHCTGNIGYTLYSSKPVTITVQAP
Method: as §4
as §2, with “buffer. To regenerate and repeatedly use the chip, the antibodies captured onto the chip were washed off by reacting 10 mM glycine-HCl, pH 1.5.” for “buffer.”

FcgRIIIaF = target: T10, FcgRIIIaF (human, UniProt P08637 17-208); experiment: as above
T10 construct: extracellular domain; also called FcγRIIIa F; 3aF; not shown: His tag attached to the C terminus
Method: as §4
as §2, with “buffer. To regenerate and repeatedly use the chip, the antibodies captured onto the chip were washed off by reacting 10 mM glycine-HCl, pH 1.5.” for “buffer.”

FcgRIIIaV = target: T11, FcgRIIIaV (human, UniProt P08637 17-208); experiment: as above
T11 construct: extracellular domain; also called FcγRIIIa V; 3aV; not shown: His tag attached to the C terminus
Method: as §4
as §2, with “buffer. To regenerate and repeatedly use the chip, the antibodies captured onto the chip were washed off by reacting 10 mM glycine-HCl, pH 1.5.” for “buffer.”

T3 sequence (P08637 17-208): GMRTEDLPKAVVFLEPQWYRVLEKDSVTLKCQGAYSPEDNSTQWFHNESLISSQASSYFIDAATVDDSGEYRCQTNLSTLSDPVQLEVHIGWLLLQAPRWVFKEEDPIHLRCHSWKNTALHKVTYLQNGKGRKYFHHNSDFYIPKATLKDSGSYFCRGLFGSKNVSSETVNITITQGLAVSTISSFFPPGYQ
T4 sequence (P08637 17-208 F176V limits assumed): as the sequence (P08637 17-208) above, with F160V counted along it
T10 sequence (P08637 17-208): as the sequence (P08637 17-208) above
T11 sequence (P08637 17-208 F176V limits assumed): as the sequence (P08637 17-208) above, with F160V counted along it
T5 sequence (P12314 16-292): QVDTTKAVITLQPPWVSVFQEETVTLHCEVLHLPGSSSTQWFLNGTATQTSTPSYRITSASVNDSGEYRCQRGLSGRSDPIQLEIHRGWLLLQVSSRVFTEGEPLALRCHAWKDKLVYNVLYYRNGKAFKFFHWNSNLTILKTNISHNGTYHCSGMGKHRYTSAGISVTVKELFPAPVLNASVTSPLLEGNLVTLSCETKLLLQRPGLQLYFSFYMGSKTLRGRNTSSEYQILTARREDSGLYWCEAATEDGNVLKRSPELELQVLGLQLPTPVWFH

B1: H240-Kn067/H240-Hl068/L73-k0 (antibody, human IgG1, kappa)
heavy 1: QDQLVQSGAEVKKPGASVKVSCKASGFNIKDTYIQWVRQAPGQGLEWMGRIDPLRKQTKYREKFEGRVTITADTSTNTAYMELSSLRSEDTAVYYCVRSGREFDYWGQGTLVTVSSASTKGPSVFPLAPSSKSTSGGTAALGCLVKDYFPEPVTVSWNSGALTSGVHTFPAVLQSSGLYSLSSVVTVPSSSLGTQTYICNVNHKPSNTKVDKKVEPKSCDKTHTCPPCPAPEYYWGPSVFLFPPKPKDTLMISRTPEVTCVVVDVSDEDPEVKFNWYVDGVEVHNAKTKPREEQYNATYRVVSVLTVLHQDWLNGKEYKCKVSNKDLPAPIEKTISKAKGQPREPQVCTLPPSRDELTKNQVSLWCLVKGFYPSDIAVEWESNGQPENNYKTTPPVLDSDGSFFLYSKLTVDKSRWQQGNVFSCSVMHEALHNHYTQKSLSLSP
heavy 2: QDQLVQSGAEVKKPGASVKVSCKASGFNIKDTYIQWVRQAPGQGLEWMGRIDPLRKQTKYREKFEGRVTITADTSTNTAYMELSSLRSEDTAVYYCVRSGREFDYWGQGTLVTVSSASTKGPSVFPLAPSSKSTSGGTAALGCLVKDYFPEPVTVSWNSGALTSGVHTFPAVLQSSGLYSLSSVVTVPSSSLGTQTYICNVNHKPSNTKVDKKVEPKSCDKTHTCPPCPAPELLGGPSVFLFPPKPKDTLMISRTPEVTCVVVDVSHEEPEVKFNWYVDGVEVHNAKTKPREEQYNSTYRVVSVLTVLHQDWLNGKEYKCKVSNDALPKPIEETISKAKGQPREPQVYTLPPSRCELTKNQVSLSCAVKGFYPSDIAVEWESNGQPENNYKTTPPVLDSDGSFFLVSKLTVDKSRWQQGNVFSCSVMHEALHNHYTQKSLSLSP
light: DIQMTQSPSSLSASVGDRVTITCRASQDIHKYIAWYQQKPGQAPRLLIQYTSTLQPGVPSRFSGSGSGTDYTFTISSLQPEDIATYYCLQYEQLRTFGGGTKVEIKRTVAAPSVFIFPPSDEQLKSGTASVVCLLNNFYPREAKVQWKVDNALQSGNSQESVTEQDSKDSTYSLSSTLTLSKADYEKHKVYACEVTHQGLSSPVTKSFNRGEC
notes: Heterodimerized: L234Y/L235Y/G236W/H268D/S298A/A327D in the knob chain, D270E/K326D/A330K/K334E in the hole chain
Kd (FcgRIIa R [1]): 49 nM
Kd (FcgRIIa H [2]): 94 nM
Kd (FcgRIIIa F [3]): 7.1 nM
Kd (FcgRIIIa V [4]): 1.6 nM
Kd (FcgRIa): 0.26 nM
Kd (FcgRIIa R [5]): 49 nM
Kd (FcgRIIa H [6]): 94 nM
Kd (FcgRIIb [7]): 370 nM
Kd (FcgRIIIa F [8]): 7.1 nM
Kd (FcgRIIIa V [9]): 1.6 nM

B2: H240-Kn033/H240-Hl033/L73-k0 (antibody, human IgG1, kappa)
heavy 1: not shown
heavy 2: not shown
light: DIQMTQSPSSLSASVGDRVTITCRASQDIHKYIAWYQQKPGQAPRLLIQYTSTLQPGVPSRFSGSGSGTDYTFTISSLQPEDIATYYCLQYEQLRTFGGGTKVEIKRTVAAPSVFIFPPSDEQLKSGTASVVCLLNNFYPREAKVQWKVDNALQSGNSQESVTEQDSKDSTYSLSSTLTLSKADYEKHKVYACEVTHQGLSSPVTKSFNRGEC
notes: Anti-epiregulin IgG1 with only knobs-into-holes alterations
fold 2aR (FcgRIIaR): 1 fold
fold 2aH (FcgRIIaH): 1 fold
fold 2b (FcgRIIb [10]): 1 fold
fold 3aF (FcgRIIIaF): 1 fold
fold 3aV (FcgRIIIaV): 1 fold
